In article PMC9352680, “A comprehensive thermodynamic model for RNA binding by the Saccharomyces cerevisiae Pumilio protein PUF4”:

T1: PUF4 RNA-binding domain (Saccharomyces cerevisiae, UniProt P25339 537-888)
T1 sequence: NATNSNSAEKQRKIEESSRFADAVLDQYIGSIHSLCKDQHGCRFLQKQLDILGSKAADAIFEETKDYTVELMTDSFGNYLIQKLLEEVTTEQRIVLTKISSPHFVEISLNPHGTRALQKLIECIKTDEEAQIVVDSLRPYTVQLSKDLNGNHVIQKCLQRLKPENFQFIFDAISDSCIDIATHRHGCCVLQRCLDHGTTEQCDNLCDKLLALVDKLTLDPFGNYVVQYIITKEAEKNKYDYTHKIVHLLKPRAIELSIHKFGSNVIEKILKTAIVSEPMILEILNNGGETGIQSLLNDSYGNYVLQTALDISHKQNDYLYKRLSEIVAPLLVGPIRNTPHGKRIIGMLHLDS

B1: Ie_S2_P5E.1_K5.1_C5.1_H5.1_[+2TCTCT]_A5.1_F5.1_T5.1 (ssRNA)
RNA: UUUGAUUAAUAUGAUAUCGUUCUUUCUUGUCUCUUAUUAUUAUUCUUUCUCGAUAUCAUAUUAAUCUUU
B2: Ie_S2_P5E.1_K5.1_C5.1_H5.1_[+4CCCTT]_A5.1_F5.1_T5.1 (ssRNA)
RNA: UUUGAUUAAUAUGAUAUCGUUCUUUCUUGUACCCUUUUAUUAUUCUUUCUCGAUAUCAUAUUAAUCUUU
B3: Ie_S2_P5E.1_K5.1_C5.1_H5.1_A5.1_[+6TTCCT]_F5.1_T5.1 (ssRNA)
RNA: UUUGAUUAAUAUGAUAUCGUUCUUUCUUGUAUUUUCCUAUUAUUCUUUCUCGAUAUCAUAUUAAUCUUU
B4: Ie_S2_P5E.1_K5.1_C5.1_H5.1_A5.1_[+5TCTCT]_F5.1_T5.1 (ssRNA)
RNA: UUUGAUUAAUAUGAUAUCGUUCUUUCUUGUAUUCUCUUAUUAUUCUUUCUCGAUAUCAUAUUAAUCUUU
B5: Ie_S2_P5E.1_K5.1_C5.1_H5.1_[+2TTCCT]_A5.1_F5.1_T5.1 (ssRNA)
RNA: UUUGAUUAAUAUGAUAUCGUUCUUUCUUGUUCCUUAUUAUUAUUCUUUCUCGAUAUCAUAUUAAUCUUU
B6: Ie_S2_P5E.1_K5.1_C5.1_H5.1_A5.1_[+6CCTCT]_F5.1_T5.1 (ssRNA)
RNA: UUUGAUUAAUAUGAUAUCGUUCUUUCUUGUAUUCCUCUAUUAUUCUUUCUCGAUAUCAUAUUAAUCUUU
B7: Ie_S2_P5E.1_K5.1_C5.1_H5.1_A5.1_[+5CCTCT]_F5.1_T5.1 (ssRNA)
RNA: UUUGAUUAAUAUGAUAUCGUUCUUUCUUGUAUCCUCUUAUUAUUCUUUCUCGAUAUCAUAUUAAUCUUU
B8: Ie_S2_P5E.1_K5.1_C5.1_H5.1_[+2CCTCT]_A5.1_F5.1_T5.1 (ssRNA)
RNA: UUUGAUUAAUAUGAUAUCGUUCUUUCUUGCCUCUUAUUAUUAUUCUUUCUCGAUAUCAUAUUAAUCUUU
B9: Ie_S2_P5E.1_K5.1_C5.1_H5.1_[+4TCTCT]_A5.1_F5.1_T5.1 (ssRNA)
RNA: UUUGAUUAAUAUGAUAUCGUUCUUUCUUGUAUCUCUUUAUUAUUCUUUCUCGAUAUCAUAUUAAUCUUU
B10: Ie_S2_P5E.1_K5.1_C5.1_H5.1_A5.1_[+6TCTCT]_F5.1_T5.1 (ssRNA)
RNA: UUUGAUUAAUAUGAUAUCGUUCUUUCUUGUAUUUCUCUAUUAUUCUUUCUCGAUAUCAUAUUAAUCUUU
B11: Ie_S2_P5E.1_K5.1_C5.1_H5.1_[+3CCCTT]_A5.1_F5.1_T5.1 (ssRNA)
RNA: UUUGAUUAAUAUGAUAUCGUUCUUUCUUGUCCCUUAUUAUUAUUCUUUCUCGAUAUCAUAUUAAUCUUU
B12: Ie_S2_P5E.1_K5.1_C5.1_H5.1_A5.1_[+5CTCTC]_F5.1_T5.1 (ssRNA)
RNA: UUUGAUUAAUAUGAUAUCGUUCUUUCUUGUAUCUCUCUAUUAUUCUUUCUCGAUAUCAUAUUAAUCUUU
B13: Ie_S2_P5E.1_K5.1_C5.1_H5.1_[+4TTCCT]_A5.1_F5.1_T5.1 (ssRNA)
RNA: UUUGAUUAAUAUGAUAUCGUUCUUUCUUGUAUUCCUUUAUUAUUCUUUCUCGAUAUCAUAUUAAUCUUU
B14: Ie_S2_P5E.1_K5.1_C5.1_H5.1_[+4CTCTC]_A5.1_F5.1_T5.1 (ssRNA)
RNA: UUUGAUUAAUAUGAUAUCGUUCUUUCUUGUACUCUCUUAUUAUUCUUUCUCGAUAUCAUAUUAAUCUUU
B15: Ie_S2_P5E.1_K5.1_C5.1_H5.1_A5.1_[+5TTCCT]_F5.1_T5.1 (ssRNA)
RNA: UUUGAUUAAUAUGAUAUCGUUCUUUCUUGUAUUUCCUUAUUAUUCUUUCUCGAUAUCAUAUUAAUCUUU
B16: Ie_S2_P5E.1_K5.1_C5.1_H5.1_A5.1_[+5CCCTT]_F5.1_T5.1 (ssRNA)
RNA: UUUGAUUAAUAUGAUAUCGUUCUUUCUUGUAUCCCUUUAUUAUUCUUUCUCGAUAUCAUAUUAAUCUUU
B17: Ie_S2_P5E.1_K5.1_C5.1_H5.1_[+3CCTCT]_A5.1_F5.1_T5.1 (ssRNA)
RNA: UUUGAUUAAUAUGAUAUCGUUCUUUCUUGUCCUCUAUUAUUAUUCUUUCUCGAUAUCAUAUUAAUCUUU
B18: Ie_S2_P5E.1_K5.1_C5.1_H5.1_[+3TTCCT]_A5.1_F5.1_T5.1 (ssRNA)
RNA: UUUGAUUAAUAUGAUAUCGUUCUUUCUUGUUUCCUAUUAUUAUUCUUUCUCGAUAUCAUAUUAAUCUUU
B19: Ie_S2_P5E.1_K5.1_C5.1_H5.1_A5.1_F5.1_[+9T]_T5.1 (ssRNA)
RNA: UUUGAUUAAUAUGAUAUCGUUCUUUCUUGUAUUAUUUAUUCUUUCUCGAUAUCAUAUUAAUCUUU
B20: Ie_S2_P5E.1_K5.1_C5.1_H5.1_[+3TCTC]_A5.1_F5.1_T5.1 (ssRNA)
RNA: UUUGAUUAAUAUGAUAUCGUUCUUUCUUGUUCUCAUUAUUAUUCUUUCUCGAUAUCAUAUUAAUCUUU
B21: Ie_S2_P5E.1_K5.1_C5.1_H5.1_[+3CCTC]_A5.1_F5.1_T5.1 (ssRNA)
RNA: UUUGAUUAAUAUGAUAUCGUUCUUUCUUGUCCUCAUUAUUAUUCUUUCUCGAUAUCAUAUUAAUCUUU
B22: Ie_S2_P5E.1_K5.1_C5.1_H5.1_A5.1_[+6CCTC]_F5.1_T5.1 (ssRNA)
RNA: UUUGAUUAAUAUGAUAUCGUUCUUUCUUGUAUUCCUCAUUAUUCUUUCUCGAUAUCAUAUUAAUCUUU
B23: Ie_S2_P5E.1_K5.1_C5.1_H5.1_A5.1_[+6TCTC]_F5.1_T5.1 (ssRNA)
RNA: UUUGAUUAAUAUGAUAUCGUUCUUUCUUGUAUUUCUCAUUAUUCUUUCUCGAUAUCAUAUUAAUCUUU
B24: Ie_S2_P5E.1_K5.1_C5.1_H5.1_A5.1_[+6CCCT]_F5.1_T5.1 (ssRNA)
RNA: UUUGAUUAAUAUGAUAUCGUUCUUUCUUGUAUUCCCUAUUAUUCUUUCUCGAUAUCAUAUUAAUCUUU
B25: Ib_S2_P3E.1_K3.1_C3.1_H3.1_[T1G]_[A4G]_A3.1_F3.1_T3.1 (ssRNA)
RNA: UUUGAUUAAUAUGAUAUCGUUCUUUCUGGUGUAUAUUCUUUCUCGAUAUCAUAUUAAUCUUU
B26: Ib_S2_P3E.1_K3.1_C3.1_H3.1_[G2T]_[T3A]_A3.1_F3.1_T3.1 (ssRNA)
RNA: UUUGAUUAAUAUGAUAUCGUUCUUUCUUUAAUAUAUUCUUUCUCGAUAUCAUAUUAAUCUUU
B27: Ib_S2_P3E.1_K3.1_C3.1_H3.1_[T1G]_[A4C]_A3.1_F3.1_T3.1 (ssRNA)
RNA: UUUGAUUAAUAUGAUAUCGUUCUUUCUGGUCUAUAUUCUUUCUCGAUAUCAUAUUAAUCUUU
B28: Ib_S2_P3E.1_K3.1_C3.1_H3.1_[G2C]_[T3C]_A3.1_F3.1_T3.1 (ssRNA)
RNA: UUUGAUUAAUAUGAUAUCGUUCUUUCUUCCAUAUAUUCUUUCUCGAUAUCAUAUUAAUCUUU
B29: Ie_S2_P5E.1_K5.1_C5.1_H5.1_[+3CCC]_A5.1_F5.1_T5.1 (ssRNA)
RNA: UUUGAUUAAUAUGAUAUCGUUCUUUCUUGUCCCAUUAUUAUUCUUUCUCGAUAUCAUAUUAAUCUUU
B30: Ie_S2_P5E.1_K5.1_C5.1_H5.1_A5.1_[+7CCT]_F5.1_T5.1 (ssRNA)
RNA: UUUGAUUAAUAUGAUAUCGUUCUUUCUUGUAUUACCUUUAUUCUUUCUCGAUAUCAUAUUAAUCUUU
B31: Ie_S2_P5E.1_K5.1_C5.1_H5.1_A5.1_[+7CTC]_F5.1_T5.1 (ssRNA)
RNA: UUUGAUUAAUAUGAUAUCGUUCUUUCUUGUAUUACUCUUAUUCUUUCUCGAUAUCAUAUUAAUCUUU
B32: Ie_S2_P5E.1_K5.1_C5.1_H5.1_[+3CTC]_A5.1_F5.1_T5.1 (ssRNA)
RNA: UUUGAUUAAUAUGAUAUCGUUCUUUCUUGUCUCAUUAUUAUUCUUUCUCGAUAUCAUAUUAAUCUUU
B33: Ie_S2_P5E.1_K5.1_C5.1_H5.1_[+4TTC]_A5.1_F5.1_T5.1 (ssRNA)
RNA: UUUGAUUAAUAUGAUAUCGUUCUUUCUUGUAUUCUUAUUAUUCUUUCUCGAUAUCAUAUUAAUCUUU
B34: Ie_S2_P5E.1_K5.1_C5.1_H5.1_A5.1_[+5TTT]_F5.1_T5.1 (ssRNA)
RNA: UUUGAUUAAUAUGAUAUCGUUCUUUCUUGUAUUUUUAUUAUUCUUUCUCGAUAUCAUAUUAAUCUUU
B35: Ie_S2_P5E.1_K5.1_C5.1_H5.1_[+4TCC]_A5.1_F5.1_T5.1 (ssRNA)
RNA: UUUGAUUAAUAUGAUAUCGUUCUUUCUUGUAUCCUUAUUAUUCUUUCUCGAUAUCAUAUUAAUCUUU
B36: Ie_S2_P5E.1_K5.1_C5.1_H5.1_A5.1_F5.1_[+8CCT]_T5.1 (ssRNA)
RNA: UUUGAUUAAUAUGAUAUCGUUCUUUCUUGUAUUAUCCUUAUUCUUUCUCGAUAUCAUAUUAAUCUUU
B37: Ie_S2_P5E.1_K5.1_C5.1_H5.1_[+3TTC]_A5.1_F5.1_T5.1 (ssRNA)
RNA: UUUGAUUAAUAUGAUAUCGUUCUUUCUUGUUUCAUUAUUAUUCUUUCUCGAUAUCAUAUUAAUCUUU
B38: Ie_S2_P5E.1_K5.1_C5.1_H5.1_A5.1_[+6TCT]_F5.1_T5.1 (ssRNA)
RNA: UUUGAUUAAUAUGAUAUCGUUCUUUCUUGUAUUUCUAUUAUUCUUUCUCGAUAUCAUAUUAAUCUUU
B39: Ie_S2_P5E.1_K5.1_C5.1_H5.1_A5.1_[+6TTC]_F5.1_T5.1 (ssRNA)
RNA: UUUGAUUAAUAUGAUAUCGUUCUUUCUUGUAUUUUCAUUAUUCUUUCUCGAUAUCAUAUUAAUCUUU
B40: Ie_S2_P5E.1_K5.1_C5.1_H5.1_[+3TCC]_A5.1_F5.1_T5.1 (ssRNA)
RNA: UUUGAUUAAUAUGAUAUCGUUCUUUCUUGUUCCAUUAUUAUUCUUUCUCGAUAUCAUAUUAAUCUUU
B41: Ie_S2_P5E.1_K5.1_C5.1_H5.1_[+4CTT]_A5.1_F5.1_T5.1 (ssRNA)
RNA: UUUGAUUAAUAUGAUAUCGUUCUUUCUUGUACUUUUAUUAUUCUUUCUCGAUAUCAUAUUAAUCUUU
B42: Ie_S2_P5E.1_K5.1_C5.1_H5.1_A5.1_[+7CC]_F5.1_T5.1 (ssRNA)
RNA: UUUGAUUAAUAUGAUAUCGUUCUUUCUUGUAUUACCUUAUUCUUUCUCGAUAUCAUAUUAAUCUUU
B43: Ie_S2_P5E.1_K5.1_C5.1_H5.1_A5.1_[+7TC]_F5.1_T5.1 (ssRNA)
RNA: UUUGAUUAAUAUGAUAUCGUUCUUUCUUGUAUUAUCUUAUUCUUUCUCGAUAUCAUAUUAAUCUUU
B44: Ie_S2_P5E.1_K5.1_C5.1_H5.1_A5.1_F5.1_[+9TT]_T5.1 (ssRNA)
RNA: UUUGAUUAAUAUGAUAUCGUUCUUUCUUGUAUUAUUUUAUUCUUUCUCGAUAUCAUAUUAAUCUUU

Target: T1, PUF4 RNA-binding domain
Assay: Mg; RNA-MaP; 20 mM Na-HEPES pH 7.4, 30 mM KOAc, 0.75 mM MgCl2, 0.1% Tween-20, 5% glycerol, 0.1 mg/mL BSA, 2 mM DTT; 25 C; 0.0125-409.6 nM protein
Details: tags: N-His6-TEV cleaved; C-SNAP kept, Cy3B-labelled; label: tethered on chip by stalled RNA polymerase

Binder | Kd [nM]
B1 | 39.3
B2 | 6.38
B3 | 12.3
B4 | 9.67
B5 | 27.4
B6 | 20.8
B7 | 12.8
B8 | > 2300
B9 | 10.5
B10 | 12.9
B11 | 54.6
B12 | 13.3
B13 | 18.1
B14 | 7.93
B15 | 13.2
B16 | 16.3
B17 | 35.3
B18 | 46.3
B19 | 5.9
B20 | 56.2
B21 | 127
B22 | 99.6

Binder | Kd [nM]
B23 | 75.2
B24 | 15.6
B25 | 10.7
B26 | 1460
B27 | > 2300
B28 | > 2300
B29 | 24.4
B30 | 31.6
B31 | 42.2
B32 | 10.1
B33 | 2.96
B34 | 1.6
B35 | 2.6
B36 | 16.6
B37 | 7.67
B38 | 2.42
B39 | 28.6
B40 | 11.4
B41 | 1.36
B42 | 58.9
B43 | 11.8
B44 | 8.73
